Experimental data: patent US8470556B2, “Nucleic acids that encode antigen binding proteins that bind PAR-2” (Amgen Inc., priority 2007, dated 2013)

T1: PAR-2 (Homo sapiens, UniProt P55085)
T1 sequence (P55085 26-397): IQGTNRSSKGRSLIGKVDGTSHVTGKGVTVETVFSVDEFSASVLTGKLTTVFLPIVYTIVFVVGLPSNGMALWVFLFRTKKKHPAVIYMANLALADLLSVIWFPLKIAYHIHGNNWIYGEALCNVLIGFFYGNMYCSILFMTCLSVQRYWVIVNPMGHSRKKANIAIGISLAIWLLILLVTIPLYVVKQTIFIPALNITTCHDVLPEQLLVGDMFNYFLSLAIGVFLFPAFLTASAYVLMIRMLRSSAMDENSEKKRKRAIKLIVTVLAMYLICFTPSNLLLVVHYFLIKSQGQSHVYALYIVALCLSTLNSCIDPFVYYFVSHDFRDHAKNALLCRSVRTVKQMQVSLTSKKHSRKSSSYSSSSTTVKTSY


Assays:
Sprague Dawley rats = assay: Carrageenan paw edema in Sprague Dawley rat (plethysmography); type: in vivo; settings: antibodies IP 1.5 mg/rat, indomethacin 5 mg/kg
Procedure: (§1) This example describes the effects of PAR-2 antibodies on paw edema in an acute AIA model substantially as described previously. Briefly, 6-8 week old Sprague Dawley or Lewis rats (Charles River Laboratories, Wilmington, Mass.) were injected subcutaneously (SC) in the plantar region of the hind paw with 1% lambda carrageenan in one hind paw and control (saline) in the other. Blocking PAR-2 monoclonal antibody (1A1) or control (positive or negative control; see footnotes to Table 4) was administered intraperitoneally (IP) eighteen hours prior to adjuvant injection at 1.5 mg/rat (approximately 8-10 mg/kg), swelling was then measured by plethysomgraphy at selected time points. Data were expressed as volume of water in milliliters (mL) displaced per paw versus baseline measurements for that paw.

Lewis rats [1] = assay: Acute adjuvant-induced arthritis (C/K) model, knee joint thickness; type: in vivo; settings: 0 Hr; Lewis rat; group mean ± SEM
Procedure: This example describes acute and chronic models of arthritis. In both models, animals are anesthetized, for example by Ketamine/Xylazine mixture (mouse mix or rat mix, respectively) or isoflurane for all intraarticular (IA), periarticular (PA) injections or intradermal (ID) injections.
Joint injections, IA or PA, are targeted at either knees or hind limb paws. PA injections are equally divided across four sites surrounding the joint of interest. Paw injections are administered ID into the plantar area of the hind paw. To serve as an internal control, one knee or hind-limb paw is injected with vehicle alone or sterile PBS. Preparation of the injection area includes shaving the joint area after animals are anesthetized, and scrubbing with an iodine solution followed by an alcohol disinfectant. All articular injections are given with a 30-gauge needle or equivalent, and when needed by a gastight (i.e., Hamilton) syringe, for small injection volumes (i.e. 10 microL).
For induction of acute AIA (aAIA), animals are injected on day zero (D0) with 1-4% lambda-carrageenan and 1-4% kaolin (C/K) by IA injection in saline. Concentrations of both compounds are dependent on intended disease severity. Total injection volumes for the inducing agent are between 10-20 microL for mice and 60-80 microL for rat. Both concentration and injection volume are consistent with published methodologies (J Clin Invest. 2003; 111(1):35-41, and J Pharmacol Exp Ther. 2006; 316(3):1017-24). Alternatively, specific PAR-2 peptide agonists, or other activators of inflammation (such as trypsin, or human beta-tryptase [J Clin Invest. 2003; 111(1):35-41, J Pharmacol Exp Ther. 2006; 316(3):1017-24, J Pharmacol Sci. 2005 97(1):38-42, and Br J Pharmacol. 1999 127(5):1083-90]) or the equivalent, may be used. Concentrations used are selected for intended disease severity, and total injection volumes are appropriate to the animal being injected.
For both acute and chronic AIA studies, caliper measurements of joint diameter are taken of all joints of interest prior to any injection. Tracking of disease may include caliper measurements of joint diameter as well as flexible tape measurements of joint circumference, and visual scoring. Alternative methods (i.e., use of a plethysmometer) may also be used. Severity of cAIA is scored by one or both of the criteria shown below:
In this manner, 6-8 week old Lewis rats were injected with C/K plus treatment (or control) in the left knee, and negative control in each right knee, as for the acute model. Joint thickness was measured at set time points after treatment, using an average of three caliper readings. The change in thickness of the left knee as compared to the right knee was expressed as percent change, and is shown in Table 3 below.

[2] = target: T2, N-terminal PAR-2/Fc (full length and truncated) (Homo sapiens, UniProt P55085); assay: Western blot, binding to uncleaved versus clipped N-terminal PAR-2/Fc; settings: for Binding to Cleavage Site Down stream: downstream binder binds both full length and truncated PAR-2-Fc
T2 construct: made in house; host or cells: CHO cells (10% FCS for uncleaved; serum-free for clipped)
Description: N-terminal PAR-2/Fc polypeptide (SEQ ID NO:6) is expressed in suitable mammalian cells such as CHO cells. Expression supernatant from CHO expression cells cultured in serum-free media contain a CHO cell trypsin-like serine protease that cleaves PAR-2/Fc at the activation Arg-Ser bond, generating the “clipped” version of the PAR-2/Fc polypeptide. CHO expression cells cultured in 10% fetal calf serum (which contains normal levels of plasma proteinase inhibitors at concentrations far in excess of the concentration of the CHO cell trypsin-like serine protease) express uncleaved N-terminal PAR-2/Fc in culture supernatants. Both clipped and uncleaved proteins are purified using methods that are suitable for isolation and purification of proteins comprising an Fc regions (for example, using a MabSelect™ resin systems, from GE Healthcare, Piscataway, N.J.)). The resultant purified Fc-constructs are analyzed by amino terminal sequence analysis (Edman degradation), size exclusion chromatrography, absorbance spectral scan, and mass spectroscopy, as needed.
To analyze binding to uncleaved versus cleaved PAR-2, various amounts of purified uncleaved and clipped N-terminal PAR2-Fc are subjected to SDS-PAGE using 8-16% polyacrylamide gradient gels (Novex gels, Invitrogen Life Technologies) in a Tris-Glycine buffer system. Gel lanes containing See Blue standards (Novex, Invitrogen Life Technologies) for molecular weight identification are also included. Following electrophoresis, proteins are transferred from gels onto nitrocellulose membranes using a Novex XCell II Blot Module (Invitrogen Life Technologies). Membranes are blocked with 1:1, Odyssey blocking buffer, OBB, (LI-COR Biosciences):TBS (Tris Buffer Saline) overnight at 4 C with shaking. Antibodies to be analyzed are diluted in 1:1 OBB:TBS at a desired final concentration for 1 hr at room temperature. Membranes are washed extensively with 0.1% Tween 20 in TBS (3-4 changes of 100 ml over ˜1 hr). Membranes are then exposed to the appropriate secondary antibody-Alexa680 (Molecular Probes, Invitrogen Life Technologies) conjugate (goat anti-rabbit IgG, or goat anti-mouse IgG) diluted 1:5000 in 1:1 (OBB:TBS) for 1 hr at room temperature. Membranes are washed as described above, and if desired, analyzed using a LI-COR Odyssey Infrared Imaging System (LI-COR Biosciences).
(§2) Several PAR-2 antibodies were tested in different assay formats; Table 2 summarizes the results. IC50 values were determined in a FLIPR assay for Ca2+ mobilization described previously; binding to the upstream region of the cleavage site versus the downstream region of the cleavage site was determined using the Western blot assay described previously.

PAR-2 = target: T1, PAR-2; assay: FLIPR assay for Ca2+ mobilization; type: cell-based
Description: Hybridoma clones thus generated are screened for reactivity with PAR-2. Initial screening of hybridoma supernatants may utilize a peptide ELISA, a whole cell ELISA and/or a cell-based assay suitable for high-throughput screening (fluorometric microvolume assay technology or FMAT, substantially as described by Fiscella, et al., Nature Biotechnology 21:302-307; 2003). Hybridomas that are positive in this screening method may be further cultured to provide larger amounts of antibody, which can then be purified as described below and screened by additional cell-based assay(s) (for example, a flash plate assay using cells co-expressing apoaequorin, a Ca2+-sensitive photoprotein, substantially as described by Le Poul et al., J. Biomol. Screen. 7(1):57-65; 2002, and PAR-2), or a fluorometric imaging plate reader (FLIPR) assay, which is used to determine changes in intracellular Ca2+ levels, substantially as described in S. Pitchford, Genetic Engineering News vol. 18, Number 15 (1998) and/or Sullivan et al., Methods in Molecular Biology vol. […]
as §2

Lewis rats [3] = assay: Carrageenan paw edema in Lewis rat (plethysmography); type: in vivo; settings: IP 18 h prior to carrageenan, 1.5 mg/rat
Procedure: as §1

T2 sequence (P55085 with tags, fused parts or gaps limits assumed): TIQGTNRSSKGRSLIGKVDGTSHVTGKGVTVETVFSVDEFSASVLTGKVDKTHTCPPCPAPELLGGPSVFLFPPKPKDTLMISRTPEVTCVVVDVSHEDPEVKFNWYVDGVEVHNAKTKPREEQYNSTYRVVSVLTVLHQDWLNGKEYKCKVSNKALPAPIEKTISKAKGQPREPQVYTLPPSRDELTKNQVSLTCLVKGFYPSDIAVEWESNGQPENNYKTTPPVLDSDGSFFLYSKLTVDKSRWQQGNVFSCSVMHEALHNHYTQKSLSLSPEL

Molecule	Paw Edema, volume of water displaced per paw versus baseline (Sprague Dawley rats; 0 Hr)	Paw Edema, volume of water displaced per paw versus baseline (Sprague Dawley rats; 2 Hr)	Paw Edema, volume of water displaced per paw versus baseline (Sprague Dawley rats; 4 Hr)	Paw Edema, volume of water displaced per paw versus baseline (Sprague Dawley rats; 6 Hr)	IC50 (PAR-2)	Binding to Cleavage Site Down stream [2]	also measured
COc1ccc2c(c1)c(CC(=O)O)c(C)n2C(=O)c1ccc(Cl)cc1 [Indomethacin, reference compound]	0.00 ± 0.00 mL	0.26 ± 0.22 mL	0.28 ± 0.08 mL	0.49 ± 0.16 mL			
SLIGRL [reference compound]							change in thickness of the left knee as compared to the right knee, percent change (Lewis rats [1]): 0.00 ± 0.00%
1C7: anti-PAR-2 monoclonal antibody; heavy SEQ ID NO: 17, light SEQ ID NO: 19 (antibody, listed as Homo sapiens, V domains shown) VH: EVQLVQSGAEVKKPGESLKISCKGSGYSFTSYWIGWVRQMPGKGLEWMGIIYPGDSDTRYSPSFQGQVTISADKSIRTAYLQWSSLKASDTAMYYCARHKGITGTTFYYDYGMDVWGQGTTVTVSS VL: SYELTQPPSVSVSPGQTARITCSGEALPKQYASWYQQKPGQAPVLVIYKDSERPSGIPERFSGSSSGTTVTLTISGVQAEDEADYYCQSADSNGAYVFGTGTKVTVL							Binding to Cleavage Site Up stream ([2]; upstream binder binds only full-length PAR-2/Fc): xxx
2C6: binding non-blocking anti-PAR2 mAb; heavy SEQ ID NO: 23, light SEQ ID NO: 25 (antibody, listed as Homo sapiens, V domains shown) VH: QVQLVQSGAEVKKPGASVKVSCKASGYTFTGYFFHWVRQAPGQGLEWVGWINPNSGATHFAQKFQGRVTMTRDTSISTAYMELSRLRSDDTAVYYCARDGSNWNRDYGMDVWGQGTTVTVSS VL: QSVLTQPPSASGTPGQRVTISCSGSSSNIGINHVYWYQQLPGTAPKIFIYRNNQRPSGVPDRFSGSKSGTSASLAISGLRSEDEADYYCAVWDDSLSGVVFGGGTKLTVLG	0.00 ± 0.00 mL	0.57 ± 0.08 mL	1.06 ± 0.16 mL	1.13 ± 0.08 mL	> 1000 nM	xx	Paw Edema, volume of water displaced per paw versus baseline (Lewis rats [3]; 0 Hr): 0.00 ± 0.00 mL; Paw Edema, volume of water displaced per paw versus baseline (Lewis rats [3]; 2 Hr): 0.22 ± 0.02 mL; Paw Edema, volume of water displaced per paw versus baseline (Lewis rats [3]; 4 Hr): 0.22 ± 0.05 mL; Paw Edema, volume of water displaced per paw versus baseline (Lewis rats [3]; 6 Hr): 0.32 ± 0.06 mL; Paw Edema, volume of water displaced per paw versus baseline (Lewis rats [3]; 8 Hr): 0.51 ± 0.11 mL
9B12: anti-PAR-2 monoclonal antibody; heavy SEQ ID NO: 27, light SEQ ID NO: 29 (antibody, listed as Homo sapiens, V domains shown) VH: QVQLVESGGGVVQPGRSLRLSCAASGFTFSSYGMHWVRQAPGKGLEWVAVIWYDGSNKYYADSVKGRFTISRDNSKNTLYLQMNSLRAEDTAVYYCARDLGAAAGTGFDYWGQGTLVTVSS VL: QSVLTQPPSVSAAPGQKVTISCSGSSSNIGNNYVSWYQQLPGTAPKLLIYDNNKRPSGIPDRFSGSKSGTSATLGITGLQTGDEADYYCGTWDSSLSAGVVFGGGTKLTVL					> 1000 nM	xx	
